Results published in the DeepSol protein solubility set.

Assay: soluble on expression in E. coli; label from the status in PepcDB or PDB records

Sequence | soluble on expression in E. coli
MINTMTLDNGVRIITEKMSTVRSVSIGIWVGTGSRYESAEENGISHFLEHMFFKGTNTRSAQEIAEFFDSIGGQVNAFTSKEYTCYYAKVLDDHAGQAIDTLSDMFFHSTFQKEELEKERKVVFEEIKMVDDTPDDIVHDLLSSATYGKHSLGYPILGTVETLNSFNEGMLRHYMDRFYTGDYVVISVAGNVHDELIDKIKETFSQVKPTTYNYQGEKPMFLPNRIVRKKETEQAHLCLGYPGLPIGDKDVYALVLLNNVLGGSMSSRLFQDIREKRGLCYSVFSYHSSFRDSGMLTIYAGTGHDQLDDLVYSIQETTSALAEKGLTEKELENGKEQLKGSLMLSLESTNSRMSRNGKNELLLKKHRSLDEMIEQINAVQKQDVSRLAKILLSASPSISLINANGELPKALIHLEHHHHHH | soluble
MINVSDLTQKLPEGSNAGVIAKNINQNQIIADYNGSTFMLPASTQKVFTAVAAKLALGDQFQFETALLSNGKIQNGNLDGNLIVSFTGDPDLTRGQLYSLLAELKKQGIKKINGDLVLDTSVFSSHDRGLGWIWNDLTMCFNSPPAAANIDNNCFYAELDANKNPGEIVKINVPAQFPIQVFGQVYVADSNEAPYCQLDVVVHDNNRYQVKGCLARQYKPFGLSFAVQNTDAYAAAIIQRQLRKLGIEFNGKVLLPQKPQQGQLLAKHLSKPLPDLLKKMMKKSDNQIADSLFRAVAFNYYKRPASFQLGTLAVKSILQKQGIRFGNSILADGSGLSRHNLVAPKTMLSVLEYIAKNEDKLHLMETFPIAGVDGTISGRGGLISPPLVKNVIAKTGSLKGVYNLAGFMTNARGEKVAFVQFINGYSTGDLESKTKRAPLVQFERNLYNELYKY | soluble
MIPITPTIALDDAEIEERFIRSSGPGGQNVNKVSTAVQLRFDVAGSPNLPGWVKHRLSVLAGSRLTGEGVLVLTAQSQRTQEANRREAVERLVALIQAACHRDKPRRPTRPTKGSQTRRMDGKTLRGAIKKGRQSKPSLDLEHHHHHH | soluble
MIPLMHDFEGETVLVVGGGSVGARKARTFATEASVVVLSPEFGDRTFADAEKVRAAPTPEDATDWVERTDPALVVAATDDSDLNGAFSTAAAEHGALVNRTDDHGDQSFGNIVVPATVRDDPVTLAIATGGRAPALSKHLRERFEDEFGNAGLMADLVGDLREDLRDRGVPPAKRRDAVRFVVRSREVWKALDSGRSKGEQVARDVIGELPGDQT | not soluble
MIPMNVTFEHDFQTMRESFFENAQEAFAILDKDLNFIDINKSFTESLKTGRDKLIGKNIIEFNSSIKNTERFRLYQKVLQTGESIILDDIRLHPNLGSYTIRVSCFKVGEGIGLAILNITDLRDAIDDLETFIYKCSHDMRTPVSNIYGLIQLALEDTKDPHTVEFLNMIKHQTDRLDHIIHQLANTSRLMHDNKIIYLVDLKTVVSDVIDSFSKIPDFEAIKFTVTSSSKEKFFSDKSLLICILENIIDNAIKYRNHDIQSLIDINMSDEKSGVRITIKDNGIGIDDDIQKNVFKMFYRGTNKSSGSGLGLYTVKHFIKKLKGEISLTSEKNTGTTFSFYIPNVNTDK | not soluble
MIPRPIPEPSPDLYTEEEVSKLVHEFYAKARKDAALGPIFEEHVIDWDAHFVQMTNFWSAQLRGTSRFRGAPMPKHIALPELNETLFKRWLQLFRQTTLELGNPLLKQHADTVAEFIAGRLWMGYQMSHFPHREPADLNTSEV | not soluble
MIQIRPMTPEDFDRFWPTFQAVVVAQETYAYDPALTQEQACDVWLKLPLHTLIAEEDGQLLGSYYLKANAAGPGNHVCNCGYMVTDAALGRGVARLMCEHSQQLARDSGFLAMQFNSVVASNEVAVALWAKLGFETVGRLPKAYRHARLGLVDCLVMFKWLADAPIAAEPVQPKLIGRKNIESVVSRPRRK | not soluble
MIQPVAVIGAGPFGLSTAAHLRARGIPVRVFGDPMVSWRDHMPAGMLLKSTPAASTIDAPQRGHRLVDYCDAAGIARLVTDEDIIPVETFIGYGRWFQEQLVPGLEQVRVVSVDRKAGGGFELKLDSGELFTARAVVVATGLSGLAHLPAELAGAAVDGPTPTGPVSHSSQHHDLSRFAGKELVVVGAGQSALETAALAAEAGAHVRVVSRGRGRVSFGAPPWKQPRLRPESPFGRAWSLWALSYYPHPYRYLPAEARHYLVRRVLGPLGAWWLRDRFEGKVEVREVASVARAHASEGSPVLTLRTHGGRTQELPADHVIAATGYRVDIAAMDFLGHELRTELVVSRGTPKLGAGFRSSVPGLYFTGLPAAASYGPVMRFVCGTEFASPRLAKHLAGAHGLEHHHHHH | not soluble
MIQRDIEYSGQYSKDVKLAQKRHKDMNKLKYLMTLLINNTLPLPAVYKDHPLQGSWKGYRDAHVEPDWILIYKLTDKLLRFERTGTHAALFGLEHHHHHH | soluble
MIQRNSTLAVLRESFVAGSDENLSPIMHHLWKMEGGAIYFCRSGWAHVTIDLKEYEIVKNTQVVLLPGSIIRINGSSSDFTASFFGFPKDMFREACLRLEPTFFRFMKEKPCYVLPDKDTGAINGLIQATTAIYNDRENRFRNQIAKNHLQSFMLDIYDKCYRYFDKQEIEGGSRQDEIFKKFVALVHENCISQREVNFYANELCISTKYLTGICRSVTGDSAKKIIDDFAILEIKVLLQSTELTMQDIADRLGFPDQSYLGRYFKRHEGMSPREYQNRYVI | not soluble
MIRQRRRALTPEQQQEMGQQAATRMMTYPPVVMAHTVAVFLSFDGELDTQPLIEQLWRAGKRVYLPVLHPFSAGNLLFLNYHPQSELVMNRLKIHEPKLDVRDVLPLSRLDVLITPLVAFDEYGQRLGMGGGFYDRTLQNWQHYKTQPVGYAHDCQLVEKLPVEEWDIPLPAVVTPSKVWEWMGHHHHHHSH | not soluble
MIRVMATGVFDILHLGHIHYLKESKKLGDELVVVVARDSTARNNGKIPIFDENSRLALISELKVVDRAILGHEGDMMKTVIEVKPDIITLGYDQKFDEAELQSKINKLGITVKIVRISKYDGQLNSSSSVRKKIMELIGERY | not soluble
MISENYSRNLVGYGRNAPDPKWPGGARIAVQFVINYEEGGESCILDNDKASESLLSEIVGAQPWPGQRNLNMESIYEYGSRAGFWRLWRMFTGLGVTTTVYGVTAAMARNPEAVAAMKEAGWEIASHGYRWLEYKDFSEEEERKHIVEAVHLHTELTGERPYGMYQGKPSDNTLRLVMEEGGFLYSSDSYADDLPYWVKGVGDEPFLIIPYTLDTNDMRFATPQGFNSGDQFFTYLKDAFDVLYQEGVEGAPKMMSIGLHCRLVGRPGRAAALRRFIEYVLGHEKVWIPQRLEIARHWHEHHKPETP | not soluble
MISIFDIFKIGIGPSSSHTVGPMKAAAAFAAGLDAQAVRIVIDIYGSLALTGYGHGTFDALMLGLEGSLPHDIPLAGIPERLERIRTQHILRLNGQEIRFIPDRDLNILGNQVLPKHPNSLRFTAYASDGTVLNEQVYYSVGGGFVVTEEDFDR | not soluble
MISIKGTGRFLLDNYRIWQRRAFNRPIQLRKGYKVLAIETSCDDTCVSVLDRFSKSAAPNVLANLKDTLDSIDEGGIIPTKAHIHHQARIGPLTERALIESNAREGIDLICVTRGPGMPGSLSGGLDFAKGLAVAWNKPLIGVHHMLGHLLIPRMGTNGKVPQFPFVSLLVSGGHTTFVLSRAIDDHEILCDTIDIAVGDSLDKCGRELGFKGTMIAREMEKFINQDINDQDFALKLEMPSPLKNSASKRNMLSFSFSAFITALRTNLTKLGKTEIQELPEREIRSIAYQVQESVFDHIINKLKHVLKSQPEKFKNVREFVCSGGVSSNQRLRTKLETELGTLNSTSFFNFYYPPMDLCSDNSIMIGWAGIEIWESLRLVSDLDICPIRQWPLNDLLSVDGWRTDQL | not soluble
MISSGWMQEMEPIPEEGTEADGSEWGAMSDTAKRTMRKKEVYTSEQINTLVSTVPKEAVPQEWLVENQVVDPEMATSYLTESLAGPTSARGSSYSYSYESHYDNPPEEEYEHFTNDDGVHQMQKVTRVTKVTTTRSVRQVPVQSPYSNIDFDSSGLPTPSPVIDRDPSLEMMARMGGASDHDSEDRSAPPPAPASRFLHEDSGIPSAPGVPDVVDAGIGEVTVVWSAPLQSNGGEVRGYQIEMREFPDGEWESMGVDHLLKDTTCRVTNLTSHEVQFRVSAYGRTGFGPASNPSLPVKIPISETDLATSAGAPLAPGRPTVIAVDGQGVLLEWTPPVADVHSSPPQGYQVEYRVYGSRDWIVANEQLVQENVFTVESLRPNGVYEFRVRGKNQDGLGHPSMSSGGVAIRPAAPQRHVPARKVSESVQPPGQPQMVEVGDDVVKLEWAPSVQNARYIVEYREVGDPEWHTANYDPIVQNGIQVEGLHRNSTYEFCVISIVDNIASQPSETSDIIHLRPTCNTSALRPAPNILEAPEFLEVDGDKITICWLPAQSQLPVMGYDVEFRDLQQDDRWYKVNDQPVFACKMTVGDLIMDHDYQFRVLAHNASGCSQPSPPSDFVHIEPSTNRFSSDTMESPHLGHHDVVKYVEAERFGAVPLLQEEMVRESPPLPERDDSPPPLRRANNNVQWRDPSLKEVIEYLSSADKDKQLNASGYLQHLTYTDNQIKEETREYGGIPKLIALLRSDTPRIQKNACACLKNLSFGKENDANKLAVMEADGVRLIAEVLRTTHDASVKEEAAAALWNLSSADMLKPVILESATEILSQQVIAPVLAVGTSDPTRHFGSTLFKNSTGVLRNVSAASQQARRRLRDIPNLIEALVHFLTHAIQKSQVDSPTVENAVCLLRNLSYRIQEVVDPNYDPAAAHSSSSKNMKHVASPKPEKKKKDKEKKKDKNPKNIVTGPSVLWQPHVVKLYLKLLQDSSNIETLEASAGAIQNLAACQFPPSAEVRAAVRVEKGLPVLVELIRLPEDFVVCAVATALRNLAIDPRNRELIGKYALRDFLDKLPEPGSPRRSAISDQTIGAVLGILFEIVRSSAAYTKDVHELKGTDKLRALSRSYPTYSHRVCKYASQVLYVMWQHKELHDGFKRSGLKEADFYSGTARRGDSSTLARPISSQGRERPSMHQLDETLSSGGGYGTMESNNRAGTLRPASATSQTIQRRYDQVPRDGPVYSSVQKPSPRGGGGGGNIDDSWV | not soluble
MISVNDFRTGLTISVDNALWQVLDFQHVKPGKGAAFVRSKLRNLRTGSVQEKTFRAGEKVEKAHIENRRMQYLYASGEAHVFMDNGTYEQIELGEKQIERELKFLKENMEVAIMTYQGEVLGVELPNTVELQVTETEPGIKGDTASNVTKPATLETGLVVQVPIFINEGEMLIINTGEGKYVSRA | not soluble
MITIKFDLNRYSCSWGAGGAFGGNRGLRPIPPEKGIFPLDHLHECDAVFFNKRFFL | not soluble
MITQHLIPDFIAKMTGSTEVQKSAGMKKSSSSQFKDTLDLAVEKSYAWQSGTKSYEYAMDIKDRPYQRLQNKNILDSAETKERRPDRTKPFNKASNQITSRASDKAERTASPEEENIEGENDRKLKGKAMEKALAEVLGISVEELEKLMAQLGINFENADGETGIQEAADKISAYLGLNQDEKMALAEMMSLVQKQVEQAFKDVQSAYDAARYDMKDENEAYGVELFHAETETAVEDTSALRNDLDVSKVSQEVKNKLDEETDGFLKQIAAKVVEVVQKDESTAGLKTVSVNGENIEEIGLKTDVEDIGNVREAKYSSDEKDSADNSGNAGSETSSMASRGVEAESAAKNSNNIQFEAVSNLTVQRATGQAEPDKTRNIIPVTNKEIVEQVVEKAKVVLSGDKSEMVIDLKPEHLGKLELKIVTERGMVVAKFVAENEQVKAALESNMNMLKESLEKQGFLVEGFSVTVGDNKRRENSRDKTNQGTANQRISGEKLQVSDMTGVERMQRIHENIDPYSYGSSSIDLTA | soluble
MITTPLVHVASVEKGRSYEDFQKVYNAIALKLREDDEYDNYIGYGPVLVRLAWHISGTWDKHDNTGGSYGGTYRFKKEFNDPSNAGLQNGFKFLEPIHKEFPWISSGDLFSLGGVTAVQEMQGPKIPWRCGRVDTPEDTTPDNGRLPDADKDAGYVRTFFQRLNMNDREVVALMGAHALGKTHLKNSGYEGPWGAANNVFTNEFYLNLLNEDWKLEKNDANNEQWDSKSGYMMLPTDYSLIQDPKYLSIVKEYANDQDKFFKDFSKAFEKLLENGITFPKDAPSPFIFKTLEEQGL | soluble
